In one assay the target is actin (Homo sapiens) (UniProt P60709). Particulars: cited from earlier work.
The target in assay [1] is 2xStrep-tagged catalytically dead CV-B3 2A, expressed in human cells. Kind of assay: FLAG affinity purification with label-free quantitative MS. Particulars: co-transfected CV-B3 2A; four biologically independent experiments; parent: est. 5.5e7; read off a plot.
Assay [2] deals with coxsackievirus B3 protease 2A with C-terminal His6-tag (for biolayer interferometry). Kind of assay: biolayer interferometry. Particulars: parent: 0.0051 s-1. In general terms: BLI is a label-free optical method that tracks binding on a fibre tip over time.
Assay [3] deals with T1, human SETD3, wild type (recombinant, tag cleaved) (human, UniProt Q86TU7 1-594).
T1 construct: SETD3, actin histidine methyltransferase, human; codon-optimised gene in vector 2G-T; also called WT SETD3; SETD3 WT; source: E. coli BL21*(DE3), purified (Glutathione Sepharose 4B, TEV digest, His-Trap FF flow-through; Superdex 200 Increase for BLI)
T1 sequence: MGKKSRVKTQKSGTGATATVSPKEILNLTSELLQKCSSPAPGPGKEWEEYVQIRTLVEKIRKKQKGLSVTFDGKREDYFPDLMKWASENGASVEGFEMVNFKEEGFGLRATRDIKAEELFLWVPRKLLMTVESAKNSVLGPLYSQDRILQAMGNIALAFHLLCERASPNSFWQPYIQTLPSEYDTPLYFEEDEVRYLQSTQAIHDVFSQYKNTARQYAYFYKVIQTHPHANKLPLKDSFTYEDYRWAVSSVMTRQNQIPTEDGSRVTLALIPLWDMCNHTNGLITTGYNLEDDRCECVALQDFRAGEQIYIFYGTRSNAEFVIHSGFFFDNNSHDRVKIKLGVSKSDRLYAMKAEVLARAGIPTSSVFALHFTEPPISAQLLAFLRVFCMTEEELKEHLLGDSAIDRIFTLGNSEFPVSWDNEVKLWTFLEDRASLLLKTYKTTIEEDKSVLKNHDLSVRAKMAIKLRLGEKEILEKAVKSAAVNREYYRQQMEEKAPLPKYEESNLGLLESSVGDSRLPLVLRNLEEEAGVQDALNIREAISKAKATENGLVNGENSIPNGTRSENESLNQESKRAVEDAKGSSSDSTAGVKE
Kind of assay: BLI; competition: His-tagged 2A on Ni-NTA biosensors, 3-fold dilution series of actin peptide (40 nM to 10 µM) with SETD3 constant at 310 nM; 20 mM Tris/HCl pH 8.0, 150 mM NaCl, 5% glycerol, 1 mM DTT; maximum binding against peptide concentration. Particulars: both partners purified.

The target of assay [4] is coxsackievirus B3 (Nancy strain) protease 2A, C107A (recombinant, tag cleaved) (coxsackievirus B3 (Nancy strain)).
Assay [5] deals with coxsackievirus B3 protease 2A with C-terminal His6-tag (for biolayer interferometry) (coxsackievirus B3 (Nancy strain)). Kind of assay: BLI; Octet RED384; His-tagged 2A loaded on Ni-NTA biosensors at 20 µg/ml, SETD3 variants in solution at several concentrations; 20 mM Tris/HCl pH 8.0, 150 mM NaCl, 5% glycerol, 1 mM DTT; global fit with Rmax unlinked.

Substitutions are numbered along the chain they refer to. Numbers in names are those of the source.

Usually Kd stands for the equilibrium constant for the complex coming apart. SETD3 (from UniProt Q86TU7): the Kd with actin (Homo sapiens) was 170 nM.

For the molecule “FLAG-tagged SETD3, wild type, expressed in human cells (from UniProt Q86TU7) Q257A; V266D”, in assay [1], the response was found to be 1.7e+06.

Regarding “FLAG-tagged SETD3, wild type, expressed in human cells (from UniProt Q86TU7) Q257A; V266D; Y288P”, in assay [1], the response turned out to be 900000.

As a reminder, the koff is the first-order rate constant of dissociation. With “human SETD3, wild type (recombinant, tag cleaved) (from UniProt Q86TU7) G361R; F409A”, the koff in assay [2] worked out at 0.0131 s⁻¹.

For the molecule “human SETD3, wild type (recombinant, tag cleaved) (from UniProt Q86TU7) G361R”, the koff in assay [2] was 0.0116 s⁻¹.

With “human SETD3, wild type (recombinant, tag cleaved) (from UniProt Q86TU7) Q257A; V266D”, the dissociation rate constant (koff) in assay [2] came to 0.45 s⁻¹.

As for “FLAG-tagged SETD3, wild type, expressed in human cells (from UniProt Q86TU7) Q257A; V266D; Y288P; G361R”, the response in assay [1] turned out to be 450000.

Turning to “human SETD3, wild type (recombinant, tag cleaved) (from UniProt Q86TU7) Y288P”, the koff in assay [2] was found to be 0.32 s⁻¹.

B1: synthetic actin peptide, residues 66-81, H73L (peptide)
peptide: TLKYPIELGIVTNWDD
notes: also called actin peptide 66-81 with His73 replaced by leucine; source: synthetic peptide
By IC50 is commonly meant the concentration that inhibits the measured activity by half. In the case of B1, the IC50 in assay [3] lay in the range of 1500 to 3400 nM.

B2: human SETD3, wild type (recombinant, tag cleaved) (enzyme)
chain: T1 sequence
As for B2, in assay [4], the 2A protease activity towards a FRET peptide of the VP1-2A cis-cleavage site; catalytically active WT 2A alone against its complex with WT SETD3 turned out to be 1.5 fold and the kcat/Km of catalytically active WT 2A in complex with WT SETD3 towards a FRET peptide of the VP1-2A cis-cleavage site (1.5 mM^-1 min^-1 for 2A alone) was 38 M⁻¹ s⁻¹. Moreover, the equilibrium dissociation constant (Kd) in assay [5] was found to be 47 nM.

B3: human SETD3 G361R + F409A (recombinant, tag cleaved) (enzyme)
chain: T1 sequence with G361R, F409A
B3: the Kd in assay [5] came out at 132 nM.

B4: human SETD3 Y288P (recombinant, tag cleaved) (enzyme)
chain: T1 sequence with Y288P
In assay [5], B4 yielded a Kd of 2500 nM.

B5: human SETD3 G361R (recombinant, tag cleaved) (enzyme)
chain: T1 sequence with G361R
Take B5: the Kd in assay [5] worked out at 110 nM.

B6: human SETD3 Q257A + V266D (recombinant, tag cleaved) (enzyme)
chain: T1 sequence with Q257A, V266D
Take B6: the Kd in assay [5] was 10000 nM.

These data come from PMC9453702, “Structure-function analysis of enterovirus protease 2A in complex with its essential host factor SETD3” (Nature Communications, 2022).
